Experiments:
Experiment in all cases: cell-based or functional assay
[1] = target: human Kv1.3 potassium channel (potassium voltage-gated channel subfamily A member 3, α-subunit) (human), P22001
[2] = target: T1, human Kv1.6 potassium channel (α-subunit) (human), P17658
T1 chain: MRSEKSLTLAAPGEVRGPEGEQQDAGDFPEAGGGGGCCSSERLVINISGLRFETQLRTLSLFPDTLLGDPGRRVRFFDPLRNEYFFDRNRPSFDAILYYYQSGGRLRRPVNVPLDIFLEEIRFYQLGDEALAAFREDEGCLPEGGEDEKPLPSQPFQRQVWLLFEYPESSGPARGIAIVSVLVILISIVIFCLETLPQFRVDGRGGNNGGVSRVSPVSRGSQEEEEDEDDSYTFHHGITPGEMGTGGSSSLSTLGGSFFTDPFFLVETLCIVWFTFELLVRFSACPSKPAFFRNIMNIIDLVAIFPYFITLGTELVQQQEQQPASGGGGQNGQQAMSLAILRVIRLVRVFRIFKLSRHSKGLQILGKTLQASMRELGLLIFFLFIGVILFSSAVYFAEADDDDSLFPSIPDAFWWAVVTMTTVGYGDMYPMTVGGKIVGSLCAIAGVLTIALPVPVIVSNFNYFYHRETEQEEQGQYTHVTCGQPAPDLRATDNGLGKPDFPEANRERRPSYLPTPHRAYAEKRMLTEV

[3] = target: T2, human Kv1.1 potassium channel (α-subunit) (human), Q09470
T2 chain: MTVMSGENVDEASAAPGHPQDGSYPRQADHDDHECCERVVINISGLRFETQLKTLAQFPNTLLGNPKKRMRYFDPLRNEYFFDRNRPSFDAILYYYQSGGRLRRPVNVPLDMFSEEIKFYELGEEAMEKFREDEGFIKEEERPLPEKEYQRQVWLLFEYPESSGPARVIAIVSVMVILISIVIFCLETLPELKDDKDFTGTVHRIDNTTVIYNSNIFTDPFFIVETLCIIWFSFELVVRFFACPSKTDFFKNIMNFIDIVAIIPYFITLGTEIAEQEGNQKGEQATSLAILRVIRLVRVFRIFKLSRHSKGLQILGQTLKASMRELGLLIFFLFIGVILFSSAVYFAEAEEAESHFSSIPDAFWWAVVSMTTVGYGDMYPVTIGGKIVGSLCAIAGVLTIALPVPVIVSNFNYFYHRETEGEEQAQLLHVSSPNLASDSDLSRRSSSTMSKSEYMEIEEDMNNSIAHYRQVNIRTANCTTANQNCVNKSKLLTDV

[4] = target: human Kv1.2 potassium channel (α-subunit) (human), P16389
Chain of human Kv1.2 potassium channel (α-subunit) (human), P16389 (P16389 whole entry): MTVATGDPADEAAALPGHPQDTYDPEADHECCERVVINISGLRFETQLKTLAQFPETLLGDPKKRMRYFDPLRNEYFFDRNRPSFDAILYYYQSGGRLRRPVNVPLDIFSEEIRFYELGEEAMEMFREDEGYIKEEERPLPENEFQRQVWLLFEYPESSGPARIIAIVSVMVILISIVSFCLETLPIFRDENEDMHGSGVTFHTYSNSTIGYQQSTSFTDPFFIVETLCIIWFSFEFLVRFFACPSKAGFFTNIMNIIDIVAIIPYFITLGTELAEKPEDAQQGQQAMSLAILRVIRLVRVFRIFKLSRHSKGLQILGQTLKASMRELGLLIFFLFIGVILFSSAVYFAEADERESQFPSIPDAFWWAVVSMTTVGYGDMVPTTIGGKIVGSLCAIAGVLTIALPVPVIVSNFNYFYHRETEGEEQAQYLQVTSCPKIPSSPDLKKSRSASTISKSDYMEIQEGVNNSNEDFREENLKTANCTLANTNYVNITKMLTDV

Chain of human Kv1.3 potassium channel (potassium voltage-gated channel subfamily A member 3, α-subunit) (human), P22001 (P22001 whole entry): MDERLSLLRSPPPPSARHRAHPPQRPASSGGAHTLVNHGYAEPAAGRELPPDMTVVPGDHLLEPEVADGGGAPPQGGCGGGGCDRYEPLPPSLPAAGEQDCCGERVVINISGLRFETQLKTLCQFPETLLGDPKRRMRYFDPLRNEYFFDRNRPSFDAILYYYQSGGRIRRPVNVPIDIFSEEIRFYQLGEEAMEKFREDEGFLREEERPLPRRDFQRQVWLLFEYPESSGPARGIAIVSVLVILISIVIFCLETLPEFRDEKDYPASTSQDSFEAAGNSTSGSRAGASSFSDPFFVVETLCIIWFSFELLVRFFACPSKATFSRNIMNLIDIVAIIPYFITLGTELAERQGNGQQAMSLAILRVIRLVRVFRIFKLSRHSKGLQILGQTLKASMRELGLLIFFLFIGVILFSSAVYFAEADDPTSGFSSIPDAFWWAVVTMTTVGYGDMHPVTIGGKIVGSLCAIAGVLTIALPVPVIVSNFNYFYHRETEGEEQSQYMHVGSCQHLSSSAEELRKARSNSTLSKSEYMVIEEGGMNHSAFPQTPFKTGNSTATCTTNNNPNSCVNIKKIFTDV

B1: Compound 1 (PaT1) (peptide)
peptide: QMDMRCSASVECKQKCLKAIGSIFGKCMNKKCKCYPR
modifications: not checked
Potency IC50 (patch clamp) [1]: 0.38 nM
anti-CD3 PBMC/IL-2 IC50 [1]: 0.09 nM
Potency IC50 (patch clamp) [2]: > 3000 nM
Selectivity Kv1.6/Kv1.3 [2]: > 7900
Potency IC50 (patch clamp) [3]: > 3000 nM
Selectivity Kv1.1/Kv1.3 [3]: > 7900
Potency IC50 (patch clamp) [4]: 518 nM
Selectivity Kv1.2/Kv1.3 [4]: 1360

Reference: patent publication US20220251151A1
